From patent publication US20260234247A1 (published 2026) come the findings set out here.

Assay [1] has as its target T1, human LILRB1 protein (Octet analyte) (human, UniProt Q8NHL6 24-458, limits assumed).
T1 construct: The construct used in the Octet assay is not described; also called hLILRB1
Briefly: Octet (BLI), off rate ranking, kdis.

The target in assay [2] is T2, human LILRB2 protein (Octet analyte) (human, UniProt Q8N423 22-460, limits assumed).
T2 construct: The construct used in the Octet assay is not described; also called hLILRB2
The assay can be described thus: Octet (BLI), off rate ranking, kdis.

Assay [3] concerns the target T3, human LILRB1 expressed on CHOK1 cells (human, UniProt Q8NHL6 24-650).
T3 construct: whole, on cells; also called CHOK1-hLILRB1; CHOK1-LILRB1
Briefly: flow cytometry (FACS) binding to CHOK1-hLILRB1 cells.

In assay [4] the target is T4, human LILRB2 expressed on CHOK1 cells (human, UniProt Q8N423 22-597).
T4 construct: whole, on cells; also called CHOK1-hLILRB2; CHOK1-LILRB2
The assay can be described thus: flow cytometry (FACS) binding to CHOK1-hLILRB2 cells.

In assay [5] the target is T3, human LILRB1 expressed on CHOK1 cells. Briefly: cell based RBA on CHOK1-hLILRB1 cells, flow cytometry; competitor HLA-G.
Assay [6] has as its target T4, human LILRB2 expressed on CHOK1 cells. Briefly: cell based RBA on CHOK1-hLILRB2 cells, flow cytometry; competitor HLA-G.
Assay [7] has as its target T5, human LILRA2 (human, UniProt Q8N149 24-449).
T5 construct: bought protein coated for ELISA; also called hLILRA2
Briefly: ELISA, OD450, antibody at 200 nM; + = 2-fold over ISO.
T5 sequence (Q8N149 24-449 limits assumed): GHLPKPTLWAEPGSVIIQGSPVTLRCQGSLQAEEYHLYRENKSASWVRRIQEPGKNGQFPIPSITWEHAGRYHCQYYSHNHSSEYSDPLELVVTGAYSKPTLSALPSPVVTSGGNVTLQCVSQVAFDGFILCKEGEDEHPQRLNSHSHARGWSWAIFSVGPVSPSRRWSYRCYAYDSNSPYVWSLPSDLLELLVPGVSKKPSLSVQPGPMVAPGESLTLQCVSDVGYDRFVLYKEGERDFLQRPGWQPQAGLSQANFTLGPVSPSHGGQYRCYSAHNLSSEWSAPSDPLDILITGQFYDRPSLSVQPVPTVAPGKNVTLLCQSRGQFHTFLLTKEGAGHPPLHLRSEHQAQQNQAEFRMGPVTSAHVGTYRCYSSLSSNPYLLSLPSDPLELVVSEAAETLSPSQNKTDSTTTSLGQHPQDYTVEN

In the next assay the target is T6, human LILRB3 (human, UniProt O75022 24-443).
T6 construct: bought protein coated for ELISA; also called hLILRB3
The description is as above.

Assay [8] addresses T7, human LILRA4 (human, UniProt P59901 24-446).
T7 construct: bought protein coated for ELISA; also called hLILRA4
Described as above.
T7 sequence (P59901 24-446 limits assumed): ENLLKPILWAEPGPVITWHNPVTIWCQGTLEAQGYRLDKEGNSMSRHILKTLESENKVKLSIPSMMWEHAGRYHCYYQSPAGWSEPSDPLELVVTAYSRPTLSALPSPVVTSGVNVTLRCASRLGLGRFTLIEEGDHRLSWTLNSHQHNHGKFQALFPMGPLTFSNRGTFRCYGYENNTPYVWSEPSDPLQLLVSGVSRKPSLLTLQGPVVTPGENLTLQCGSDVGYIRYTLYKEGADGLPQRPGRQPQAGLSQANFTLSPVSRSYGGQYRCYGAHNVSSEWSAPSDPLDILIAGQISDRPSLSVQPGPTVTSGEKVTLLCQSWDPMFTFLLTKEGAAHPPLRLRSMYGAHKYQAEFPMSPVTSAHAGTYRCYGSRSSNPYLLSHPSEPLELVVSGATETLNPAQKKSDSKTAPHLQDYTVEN

For assay [9], the target named is T8, human LILRB4 (human, UniProt Q8NHJ6 22-259).
T8 construct: bought protein coated for ELISA; also called hLILRB4
Described as above.

The target of assay [10] is T9, human LILRA2 on CHOK1-human LILRA2 cell line (human, UniProt Q8N149 24-483).
T9 construct: whole, on cells
Briefly: flow cytometry on CHOK1-human LILRA2 cell line (FIG. 2A).

Assay [11] concerns the target T10, human LILRA1 (human, UniProt O75019 17-461, limits assumed).
T10 construct: Bought protein; also called hLILRA1
Briefly: ELISA, antibody at 200 nM, OD450; + = 2-fold over ISO.
T10 sequence (O75019 17-461 limits assumed): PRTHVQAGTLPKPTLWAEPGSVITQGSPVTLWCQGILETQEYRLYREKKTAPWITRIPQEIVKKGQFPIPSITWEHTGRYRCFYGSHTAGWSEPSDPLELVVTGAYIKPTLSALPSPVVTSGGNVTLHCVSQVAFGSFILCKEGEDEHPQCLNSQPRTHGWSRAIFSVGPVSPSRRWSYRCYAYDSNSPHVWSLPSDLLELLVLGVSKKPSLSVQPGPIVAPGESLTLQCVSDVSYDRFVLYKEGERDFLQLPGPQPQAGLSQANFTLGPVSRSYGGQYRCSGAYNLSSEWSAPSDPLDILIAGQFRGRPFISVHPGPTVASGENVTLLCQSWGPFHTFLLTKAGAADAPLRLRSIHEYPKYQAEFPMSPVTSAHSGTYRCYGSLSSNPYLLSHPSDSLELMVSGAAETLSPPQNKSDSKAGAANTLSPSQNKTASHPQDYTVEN

The next assay has as its target T11, human LILRA3 (human, UniProt Q8N6C8 24-439).
T11 construct: Bought protein; also called hLILRA3
The description is as above.

Another assay addresses T12, human LILRA5 (human, UniProt A6NI73 42-268, limits assumed).
T12 construct: Bought protein; also called hLILRA5
Described as above.

Assay [12] has as its target T13, human LILRB4 (human, UniProt Q8NHJ6 22-259).
T13 construct: Bought protein; also called hLILRB4
The assay is described as above.

In assay [13] the target is T14, human LILRA4 (human, UniProt P59901 24-446).
T14 construct: Bought protein; also called hLILRA4
The assay is described as above.
T14 sequence (P59901 24-446 limits assumed): as the sequence (P59901 24-446 limits assumed) above

For another assay, the target named is T15, human LILRB5 (human, UniProt O75023 24-458).
T15 construct: Bought protein; also called hLILRB5
Described as above.

Assay [14] concerns the target T16, human LILRA2 (human, UniProt Q8N149 24-449).
T16 construct: Bought protein; also called hLILRA2
The description is as above.
T16 sequence (Q8N149 24-449 limits assumed): as the sequence (Q8N149 24-449 limits assumed) above

For the next assay, the target named is T17, human LILRB1 (human, UniProt Q8NHL6 24-458, limits assumed).
T17 construct: also called hLILRB1
Briefly: Octet off-rate ranking.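 Further: antibody dissociation rate constants against cynomolgus LILRB2 plus human LILRB1, LILRB2, LILRA1 and LILRA2, measured on an Octet instrument to rank binding.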

In assay [15] the target is T18, human LILRA1 (human, UniProt O75019 17-461, limits assumed).
T18 construct: also called hLILRA1
The assay can be described thus: Octet off-rate ranking.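 Further: antibody dissociation rate constants against cynomolgus LILRB2 plus human LILRB1, LILRB2, LILRA1 and LILRA2, measured on an Octet instrument to rank binding.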
T18 sequence (O75019 17-461 limits assumed): as the sequence (O75019 17-461 limits assumed) above

The target in assay [16] is T19, human LILRA2 (human, UniProt Q8N149 24-449, limits assumed).
T19 construct: also called hLILRA2
The assay can be described thus: Octet off-rate ranking.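 Further: antibody dissociation rate constants against cynomolgus LILRB2 plus human LILRB1, LILRB2, LILRA1 and LILRA2, measured on an Octet instrument to rank binding.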

Assay [17] deals with T20, Biotinylated LILRB1 (UniProt Q8NHL6 24-458, limits assumed, biotinylated (sites not given)). The assay can be described thus: epitope binning ELISA, coated 1 ug/ml; competitor 15G8 at 20 ug/ml.
The target in assay [18] is T20, Biotinylated LILRB1. The assay can be described thus: epitope binning ELISA, coated 1 ug/ml; competitor LK-RB1-9 at 20 ug/ml.
Assay [19] has as its target T20, Biotinylated LILRB1. The assay can be described thus: epitope binning ELISA, coated 1 ug/ml; competitor LK-RB1-12 at 20 ug/ml.
For assay [20], the target named is T20, Biotinylated LILRB1. Briefly: epitope binning ELISA, coated 1 ug/ml; competitor LK-RB1-16 at 20 ug/ml.
The target of assay [21] is T20, Biotinylated LILRB1. Briefly: epitope binning ELISA, coated 1 ug/ml; competitor LK-RB1-31 at 20 ug/ml.
Assay [22] has as its target T20, Biotinylated LILRB1. Briefly: epitope binning ELISA, coated 1 ug/ml; competitor LK-RB1-33 at 20 ug/ml.
The target in assay [23] is T20, Biotinylated LILRB1. The assay can be described thus: epitope binning ELISA, coated 1 ug/ml; competitor LK-RB1-47 at 20 ug/ml.
For assay [24], the target named is T20, Biotinylated LILRB1. Briefly: epitope binning ELISA, coated 1 ug/ml; competitor hz73D1.v1 at 20 ug/ml.

T3 sequence (Q8NHL6 24-650): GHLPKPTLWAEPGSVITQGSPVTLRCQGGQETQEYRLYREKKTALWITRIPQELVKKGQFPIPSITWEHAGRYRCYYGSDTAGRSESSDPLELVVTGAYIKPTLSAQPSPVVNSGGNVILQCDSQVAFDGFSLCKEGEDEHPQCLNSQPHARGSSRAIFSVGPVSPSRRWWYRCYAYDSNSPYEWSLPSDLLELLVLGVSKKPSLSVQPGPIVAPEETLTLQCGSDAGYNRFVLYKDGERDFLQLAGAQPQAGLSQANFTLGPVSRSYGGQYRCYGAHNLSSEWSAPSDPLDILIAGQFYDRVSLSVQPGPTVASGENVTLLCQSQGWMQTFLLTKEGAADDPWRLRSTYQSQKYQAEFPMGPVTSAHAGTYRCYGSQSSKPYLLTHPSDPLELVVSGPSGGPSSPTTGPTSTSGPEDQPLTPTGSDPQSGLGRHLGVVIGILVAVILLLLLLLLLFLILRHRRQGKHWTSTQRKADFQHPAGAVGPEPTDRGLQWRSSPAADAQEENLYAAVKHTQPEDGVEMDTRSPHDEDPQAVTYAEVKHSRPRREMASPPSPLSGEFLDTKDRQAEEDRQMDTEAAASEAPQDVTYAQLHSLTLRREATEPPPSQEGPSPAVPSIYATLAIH
T20 sequence (Q8NHL6 24-458 limits assumed): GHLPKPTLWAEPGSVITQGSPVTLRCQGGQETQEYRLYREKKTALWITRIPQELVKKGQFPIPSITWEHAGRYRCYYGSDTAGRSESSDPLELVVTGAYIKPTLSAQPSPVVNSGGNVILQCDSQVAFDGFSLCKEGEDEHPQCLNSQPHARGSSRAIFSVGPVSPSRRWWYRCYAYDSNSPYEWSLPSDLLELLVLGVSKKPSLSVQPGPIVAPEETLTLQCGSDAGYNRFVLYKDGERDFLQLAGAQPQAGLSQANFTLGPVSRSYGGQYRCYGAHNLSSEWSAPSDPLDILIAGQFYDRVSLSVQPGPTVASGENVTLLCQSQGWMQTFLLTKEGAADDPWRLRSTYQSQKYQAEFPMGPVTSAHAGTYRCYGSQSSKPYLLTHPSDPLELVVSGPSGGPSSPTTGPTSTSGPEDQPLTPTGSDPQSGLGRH
T4 sequence (Q8N423 22-597): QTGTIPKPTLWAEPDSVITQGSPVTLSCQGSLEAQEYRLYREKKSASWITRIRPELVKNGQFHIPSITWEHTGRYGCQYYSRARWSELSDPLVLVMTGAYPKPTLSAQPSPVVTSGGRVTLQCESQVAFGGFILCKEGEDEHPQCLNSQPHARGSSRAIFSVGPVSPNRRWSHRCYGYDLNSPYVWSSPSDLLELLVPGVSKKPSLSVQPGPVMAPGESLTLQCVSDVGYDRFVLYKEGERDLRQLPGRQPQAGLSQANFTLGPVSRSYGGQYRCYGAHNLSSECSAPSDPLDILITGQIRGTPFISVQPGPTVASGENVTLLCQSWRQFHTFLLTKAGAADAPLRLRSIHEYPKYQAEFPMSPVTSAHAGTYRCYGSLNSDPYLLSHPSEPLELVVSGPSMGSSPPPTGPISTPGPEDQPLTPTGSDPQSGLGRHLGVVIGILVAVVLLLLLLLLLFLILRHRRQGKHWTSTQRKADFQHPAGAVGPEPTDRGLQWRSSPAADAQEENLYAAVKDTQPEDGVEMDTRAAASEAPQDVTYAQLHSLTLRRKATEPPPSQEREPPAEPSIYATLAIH
T1 sequence (Q8NHL6 24-458 limits assumed): as the sequence (Q8NHL6 24-458 limits assumed) above
T2 sequence (Q8N423 22-460 limits assumed): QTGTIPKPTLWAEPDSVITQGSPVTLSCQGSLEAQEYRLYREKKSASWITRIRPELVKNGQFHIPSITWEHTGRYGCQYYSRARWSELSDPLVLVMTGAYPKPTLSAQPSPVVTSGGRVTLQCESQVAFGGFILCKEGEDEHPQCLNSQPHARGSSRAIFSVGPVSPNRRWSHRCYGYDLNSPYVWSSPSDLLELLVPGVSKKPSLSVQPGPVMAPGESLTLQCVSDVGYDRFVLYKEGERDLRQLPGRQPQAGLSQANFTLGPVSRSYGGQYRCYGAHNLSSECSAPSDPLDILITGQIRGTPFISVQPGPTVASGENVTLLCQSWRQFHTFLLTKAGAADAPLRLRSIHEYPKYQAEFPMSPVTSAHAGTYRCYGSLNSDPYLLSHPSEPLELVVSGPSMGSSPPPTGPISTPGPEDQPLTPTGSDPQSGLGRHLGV
T17 sequence (Q8NHL6 24-458 limits assumed): as the sequence (Q8NHL6 24-458 limits assumed) above
T19 sequence (Q8N149 24-449 limits assumed): as the sequence (Q8N149 24-449 limits assumed) above

B1: LK-RBi-05 (bispecific antibody, human IgG4 S228P, kappa)
heavy: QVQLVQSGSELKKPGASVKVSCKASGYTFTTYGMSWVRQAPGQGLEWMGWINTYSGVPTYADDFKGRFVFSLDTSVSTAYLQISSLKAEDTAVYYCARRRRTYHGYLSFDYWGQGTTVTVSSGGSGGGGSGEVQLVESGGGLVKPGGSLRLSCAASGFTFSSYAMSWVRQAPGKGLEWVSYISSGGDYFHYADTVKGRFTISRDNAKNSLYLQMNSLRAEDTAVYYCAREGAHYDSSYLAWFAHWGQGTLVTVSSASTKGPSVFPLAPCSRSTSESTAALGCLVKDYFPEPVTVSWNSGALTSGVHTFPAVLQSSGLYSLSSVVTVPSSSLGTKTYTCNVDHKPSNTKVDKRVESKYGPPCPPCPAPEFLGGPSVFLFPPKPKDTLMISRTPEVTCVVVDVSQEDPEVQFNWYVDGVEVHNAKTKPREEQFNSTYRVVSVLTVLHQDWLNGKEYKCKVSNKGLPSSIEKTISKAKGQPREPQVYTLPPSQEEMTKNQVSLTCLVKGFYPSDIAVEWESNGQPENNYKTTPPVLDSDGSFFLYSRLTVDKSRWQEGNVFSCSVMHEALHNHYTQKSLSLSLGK
light: DIQMTQSPSSLSASVGDRVTITCETSENIYGALNWYQQKPGKAPKLLIYGATNLAEGVPSRFSGSGSGTDFTFTISSLQPEDIATYYCQNVLNTPWTFGGGTKLEIKGGSGGGGSGDIQMTQSPSSVSASVGDRVTITCRASENIYSNLAWYQQKPGKAPKLLIYAATNLAEGVPSRFSGSGSGTDYTLTISSLQPEDFATYYCQQFWDNPLTFGQGTKLEIKRTVAAPSVFIFPPSDEQLKSGTASVVCLLNNFYPREAKVQWKVDNALQSGNSQESVTEQDSKDSTYSLSSTLTLSKADYEKHKVYACEVTHQGLSSPVTKSFNRGEC
On to B1, for which the off-rate (koff) in assay [1] worked out at 0.00021 s⁻¹; in assay [2] it was 8.24e-06 s⁻¹. The concentration giving a half-maximal response (EC50) in assay [3] is 2.32 nM; in assay [4] it was 0.73 nM; in [5], 4.2 µg/mL; in [6], 0.43 µg/mL.

B2: LK-RB1-5 (antibody, human IgG4 S228P, kappa, V domains shown)
VH: QVQLQQPGAELVKPGASVKLSCKASGYTFTDFWIHWVKQRPGQGLEWIGMIHPNSGSTNFNEKFRAKATLTVDKSSSTAYMRLSSLTSEDSAVYYCARSGDGYSNPMDYWGQGTSVTVSS
VL: QIVLSQSPAILSASPGEKVTLTCRASSSVSYMHWYQQKPGSSPKPWIYATSNLASGVPVRFSGSGSGTSYSLTISRMQTEDAATYYCQQWRRSPYTFGGGTKLEIKR
notes: anti-LILRB1 antibody
With B2, the binding result with human LILRA2 [7] and with human LILRB3 was “binds” in each case.

B3: LK-RB1-1 (antibody, human IgG4 S228P, kappa, V domains shown)
VH: QIQLVQSGPELKKPGETVKISCKASGYSFTNFGMSWVKQAPGKALKWMGWINTYSGVPTYADDFKGRFAFSLETSANTAYLQINNLKNEDSATYFCARRRRTFDGYLCFDYWGQGATLTVSS
VL: QLVLTQSSSASFSLGASAKLTCTLSSQHSTYSIDWYQQQPLKPPKYVMELKTDGSHRTGDGIPDRFSGSSSGADRYLSISNIQPEDEAIYICGVGDTIKEQFVYVFGGGTKVTVLR
notes: anti-LILRB1 antibody
Turning to B3, the binding result with human LILRA4 [8] and in the assay with human LILRB4 [9] was “binds” throughout.

B4: hz73D1.v1 (antibody, human IgG4 S228P, kappa, V domains shown)
VH: QVQLVQSGAEVKKPGASVKVSCKASGYTFTDYYINWVRQAPGQGLEWMGNVNPNDGGTTYNQKFKGRVTMTTDTSTSTAYMELRSLRSDDTAVYYCARREIYFYGTIYYYAMDYWGQGTLVTVSS
VL: DIQLTQSPSFLSASVGDRVTITCRASESVDYYGNSFMYWYQQKPGKAPKLLIYFASNLESGVPSRFSGSGSGTEFTLTISSLQPEDFATYYCQQNNEDPWTFGGGTKVEIKR
Regarding B4, the binding result in assay [10] was “no binding”.

B5: LK-RB2-8 (antibody, human IgG4 S228P, kappa, V domains shown)
VH: QIQLVQSGPELKKPGETVKISCKASGYSFASYGMGWVKQAPGKGLKWLGWINTHSGVPTYADDFKGRFAFSLETSASTAYLQINNLKNEDTATYFCAHYGRPWFPYWGQGTLVTVSA
VL: DIQMTQSPASLSASVGETVTITCRTSENIYSYLAWYQQKQGKSPQLLVYNAKSLAEGVPSRFSGSGSGTQFSLRINSLQPEDFGTYYCQQHYETPLTFGAGTKLELKR
B5: the binding result in the assay with human LILRA1 [11], in the assay with human LILRA3, with human LILRA5 and with human LILRB4 [12] was “binds” each time.

B6: LK-RB2-16 (antibody, human IgG4 S228P, kappa, V domains shown)
VH: QIQLVQSGPELKKPGETVKISCKASGYTFTTYGMGWVKQAPEKGLKWMGWINTNSGAPTYGDDFKGRFAFSLETSASTAYLQINNLKNEDTATYFCAHYGRPWFAYWGQGTLVTVSA
VL: DIQMTQSPASLSASVGETVTITCRASENIYSYLAWYHQKQGESPQLLVYNAKTLAEGVPSRFSGSGSGTQFSLKINSLQPEDFGSYYCQHHYNIPLTFGAGTKLELKR
As to B6, the binding result with human LILRA4 [13] and in the assay with human LILRB5 was “binds” throughout.

B7: LK-RBi-08 (bispecific antibody, human IgG4 S228P, kappa)
heavy: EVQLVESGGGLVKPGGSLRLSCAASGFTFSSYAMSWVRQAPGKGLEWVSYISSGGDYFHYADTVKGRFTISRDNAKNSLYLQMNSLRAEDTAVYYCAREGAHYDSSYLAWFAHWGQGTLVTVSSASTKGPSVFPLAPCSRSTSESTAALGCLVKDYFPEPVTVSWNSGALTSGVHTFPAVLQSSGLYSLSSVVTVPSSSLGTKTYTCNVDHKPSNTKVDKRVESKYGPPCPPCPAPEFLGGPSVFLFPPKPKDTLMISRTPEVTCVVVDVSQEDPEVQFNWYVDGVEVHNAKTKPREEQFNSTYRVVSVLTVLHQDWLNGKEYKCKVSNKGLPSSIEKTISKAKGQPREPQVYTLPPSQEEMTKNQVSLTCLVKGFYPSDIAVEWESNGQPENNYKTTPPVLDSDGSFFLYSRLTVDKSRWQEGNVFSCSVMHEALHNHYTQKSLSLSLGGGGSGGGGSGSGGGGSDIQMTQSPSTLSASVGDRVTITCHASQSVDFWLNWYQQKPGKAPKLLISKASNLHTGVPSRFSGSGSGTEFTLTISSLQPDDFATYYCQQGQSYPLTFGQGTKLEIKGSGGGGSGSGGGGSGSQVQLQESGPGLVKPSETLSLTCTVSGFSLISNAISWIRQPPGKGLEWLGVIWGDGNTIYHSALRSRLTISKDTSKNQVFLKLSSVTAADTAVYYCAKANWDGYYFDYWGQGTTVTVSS
light: DIQMTQSPSSVSASVGDRVTITCRASENIYSNLAWYQQKPGKAPKLLIYAATNLAEGVPSRFSGSGSGTDYTLTISSLQPEDFATYYCQQFWDNPLTFGQGTKLEIKRTVAAPSVFIFPPSDEQLKSGTASVVCLLNNFYPREAKVQWKVDNALQSGNSQESVTEQDSKDSTYSLSSTLTLSKADYEKHKVYACEVTHQGLSSPVTKSFNRGEC
Turning to B7, the results for the koff in assay [1] and in assay [2] were 0.000166 s⁻¹ and 5.68e-05 s⁻¹, respectively. Besides, the half-maximal effective concentration (EC50) came to 2.66 nM in assay [3], 0.37 nM in assay [4], 6.03 µg/mL in [5] and 0.28 µg/mL in [6].

B8: LK-RB2-10 (antibody, human IgG4 S228P, kappa, V domains shown)
VH: EVMLVESGGDLVKPGGSLKLSCAASGFTFSANTVSWLRRTPERRLEWVATISGGSDNTYCPDSVKGRFTISRDNARDTLYLQMSSLTSEDTALYFCARHYYDGPNWYFDVWGPGTTVTVSS
VL: DIVMTQSQKFMSSTGGDRVTITCKASQNVDTAVAWYQQKPGQSPKLLIYSASNRYIGVPDRFKGSGSGTDFSLTITNIQSEDLAEYFCQQYSSYPLTFGAGTKLELKR
As to B8, the binding result with human LILRA2 [14] is listed as “binds”.

B9: 15G8 (antibody, human IgG4 S228P, kappa, V domains shown)
VH: DVQLQGSGPGLVKPSETLSLTCSVTGYSITSGYYWNWIRQFPGKKLEWMGYISYDGSNNYNPSLKNRITISRDTSKNQFSLKLNSVTAADTATYYCAHGYSYYYAMDAWGQGTSVTVSS
VL: DIQMTQSPSSLSASVGDRVTITCRTSQDISNYLNWYQQKPGKAVKLLISYTSRLHSGVPSRFSGSGSGTDYTLTISSLQPEDFATYYCQQGNTLPTFGQGTKLEIKR
In the case of B9, the koff with human LILRB1 was 0.00389 s⁻¹; with human LILRA1 [15] it was 0.000278 s⁻¹; in the assay with human LILRA2 [16], 0.00117 s⁻¹. For the same molecule, the Inhibition % is 73% with Biotinylated LILRB1 [17]; 92.1% with Biotinylated LILRB1 [18]; 3.58% in the assay with Biotinylated LILRB1 [19]; -0.72% with Biotinylated LILRB1 [20]; -0.67% with Biotinylated LILRB1 [21]; 90.5% in the assay with Biotinylated LILRB1 [22]. The figures for the Inhibition % with Biotinylated LILRB1 [23] and in the assay with Biotinylated LILRB1 [24] were 13.5% and -0.56%, respectively.
